Values quoted from earlier work, collected in PMC7290751.

Legend:
Kv1.2 (Homo sapiens) = Kv1.2 (Homo sapiens) (UniProt P16389)
Kv1.3 (Homo sapiens) = Kv1.3 (Homo sapiens) (UniProt P22001)
UniProt P22001, sequence (P22001 whole entry): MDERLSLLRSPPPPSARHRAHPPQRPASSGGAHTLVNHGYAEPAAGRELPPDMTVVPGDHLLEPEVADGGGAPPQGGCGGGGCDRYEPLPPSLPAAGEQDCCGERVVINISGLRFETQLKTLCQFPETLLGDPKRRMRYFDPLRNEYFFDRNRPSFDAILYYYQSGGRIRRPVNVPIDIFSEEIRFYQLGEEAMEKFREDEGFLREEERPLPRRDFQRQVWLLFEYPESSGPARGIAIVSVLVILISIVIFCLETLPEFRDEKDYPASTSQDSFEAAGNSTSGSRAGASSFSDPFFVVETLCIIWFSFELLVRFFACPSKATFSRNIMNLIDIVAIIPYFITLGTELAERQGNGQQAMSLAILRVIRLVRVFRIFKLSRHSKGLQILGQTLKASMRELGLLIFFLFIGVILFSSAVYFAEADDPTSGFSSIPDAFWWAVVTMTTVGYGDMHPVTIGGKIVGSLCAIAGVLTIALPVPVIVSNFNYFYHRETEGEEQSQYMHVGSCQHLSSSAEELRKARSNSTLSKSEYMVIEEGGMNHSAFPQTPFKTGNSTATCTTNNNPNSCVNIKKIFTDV

UniProt P16389, sequence (P16389 whole entry): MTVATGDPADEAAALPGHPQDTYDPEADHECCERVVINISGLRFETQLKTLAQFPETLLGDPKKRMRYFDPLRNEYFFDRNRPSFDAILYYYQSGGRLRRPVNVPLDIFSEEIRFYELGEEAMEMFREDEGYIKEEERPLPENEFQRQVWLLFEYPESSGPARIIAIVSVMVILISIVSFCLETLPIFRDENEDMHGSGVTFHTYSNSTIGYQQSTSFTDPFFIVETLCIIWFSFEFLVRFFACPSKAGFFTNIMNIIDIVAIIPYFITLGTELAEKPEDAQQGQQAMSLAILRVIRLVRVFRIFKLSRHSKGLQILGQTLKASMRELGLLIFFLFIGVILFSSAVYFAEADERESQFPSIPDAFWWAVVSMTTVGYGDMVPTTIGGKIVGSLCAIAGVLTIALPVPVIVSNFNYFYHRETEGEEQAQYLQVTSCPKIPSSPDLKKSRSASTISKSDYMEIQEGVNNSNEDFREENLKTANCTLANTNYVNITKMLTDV

## margatoxin (MgTx) (from UniProt P40755)
Kv1.2 (Homo sapiens)
  Kd: 6.4 pM
Kv1.3 (Homo sapiens)
  Kd: 11.7 pM
